From patent publication US20090191195A1 (MacroGenics, published 2009) come the findings set out here.

For this test, the target named is T1, human FcγRIIB (human, UniProt P31994 43-310).
T1 construct: whole, on cells; Native receptor on human cells or in frozen tissue sections; also called CD32B
T1 sequence (looked up): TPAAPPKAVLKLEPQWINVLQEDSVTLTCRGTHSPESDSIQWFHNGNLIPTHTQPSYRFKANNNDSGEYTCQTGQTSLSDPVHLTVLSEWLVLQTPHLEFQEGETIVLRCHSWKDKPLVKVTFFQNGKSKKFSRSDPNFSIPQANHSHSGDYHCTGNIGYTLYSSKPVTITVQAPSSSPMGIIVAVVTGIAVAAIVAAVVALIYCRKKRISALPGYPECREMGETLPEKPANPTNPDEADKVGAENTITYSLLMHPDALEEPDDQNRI
Put plainly: immunohistochemistry, frozen lymph node, patient MG04-CHTN-19; grade = share of positive cells. As for the experimental part:
The remaining portions of these samples were placed in cryomolds and embedded in OCT cryocompound (Tissue-Tek). Once the blocks were ready, each was sectioned under a Cryostat (Leica Microsystems) at 6 microns. The slides were placed in 4° C. acetone and fixed for 10 minutes. Hours after fixation the slides were air dried and washed with phosphate buffer saline (PBS). Then endogenous peroxide activity was blocked by a 30 minute incubation in a 0.3% hydrogen peroxide solution. The slides were washed in PBS and incubated for 30 minutes with 10% normal goat serum in 2% normal human serum. After this step, the slides were divided in two groups. Two monoclonal antibodies were utilize and incubated on the same tissue in parallel, an anti-CD20 (1F5—a hybridoma, ATCC No. HB-9645, purified at Macrogenics) and the murine monoclonal anti-CD32B antibody, 2B6. Each group was incubated with one monoclonal antibody and their respective Isotype control, IgG1 (BD Biosciences, San Jose, Calif.) for the 2B6/anti-CD32B group and IgG2a (BD Biosciences) for the 1F5/anti-CD20 group. Mouse IgG1 and murine IgG2a were used as Isotype controls for anti-CD32B and anti-CD20, respectively. After one hour of incubation at room temperature, the slides were washed in PBS and incubated with a secondary antibody Goat anti Mouse labeled peroxidase (Jackson ImmunoResearch Laboratories, West Grove, Pa.). […]

B1: monoclonal antibody produced by clone 2B6 (ATCC accession number PTA-4591) (antibody, V domains shown)
VH: QVQLQQPVTELVRPGASVMLSCKASDYPFTNYWIHWVKQRPGQGLEWIGVIDPSDTYPNYNKKFKGKATLTVVVSSSTAYMQLSSLTSDDSAVYYCARNGDSDYYSGMDYWGQGTSVTVSS
VL: DILLTQSPAILSVSPGERVSFSCRTSQSIGTNIHWYQQRTNGFPRLLIKNVSESISGIPSRFSGSGSGTDFILSINSVESEDIADYYCQQSNTWPFTFGGGTKLEIK
notes: Mouse hybridoma antibody; mouse IgG1 was used as its isotype control; also called murine monoclonal anti-CD32B antibody, 2B6; anti-CD32B
In the case of B1, the binding result is “binds”.
